Patent US20220153834A1 (UNIVERSITY HEALTH NETWORK, published 2022)
Where a chain is given by its changes, count along the chain named.

B1: 4E4 (antibody, V domains shown)
VH: QVQLQQPGAELVKPGASVKLSCKASGYTFTSYWMHWVKQRPGQGLEWIGMIHPNSGSTNYNEKFKNKATLTVDKSSSTAYMQLSSLTSEDSAVYYCAPRMFDDYDDYWGQGTTLTVSS
VL: QIVLTQSPAIMSASLGERVTMTCTASSSVSSSYLHWYQQKPGSSPKLWIYSTSNLASGVPVRFSGSGSGTSYSLTISRMEAEDAATYYCHHYHRSPYTFGGGTKLEIKR
notes: Entries as printed include a leader and part of the constant region
B2: 3C6 (antibody, V domains shown)
VH: EVQLQQSGPELVKPGASVKIPCKASGYTFTDYNMDWVKQSHGESLEWIGDIYPNNGGTIYNQKFKDKATLTVDKSSSTAYMELRSLTSEDNAVYYCARKTGTGFDYWGQGTTLTVSS
VL: QIVLSQSPAILSASPGEKVTMTCRARSSVIYMHWYQQKPGSSPKPWIYATFNLASGVPARFSGSGSGTSYSLTISRVEAEDAATYYCQQWSSNPPTFGSGTKLEIKR
notes: Entries as printed include a leader and part of the constant region; also called anti-TSG-6 antibody 3C6
B3: 1A9 (antibody, V domains shown)
VH: EVQLQQSGPELVKPGASVKISCKASGYTFTDYYMNWVKQSHEKSLEWIGDINPNNGGTSYNQKFMGKATLTVDKSSRTAYMELRSLTSEDSTVYYCARWGIYDRFTYWGQGTLVSVSA
VL: DIKMTQSPSSMYASLGERVTIACKASQDINSFLSWFQQKPGKSPKTLIYRANRLVDGVPSRFSGSGSGQDYSLTISSLEYEDMGIYYCLQYDEFPLTFGAGTKLELKR
notes: as for B1
B4: 1D7 (antibody, V domains shown)
VH: B3 VH with E42G, S59T, M65K, R77S, T92A, Y102F, L113V, S115T
VL: B3 VL with L15R, A22T
notes: as for B1
B5: 5B4 (antibody, V domains shown)
VH: QVQLQQPGAELVKPGASVKLSCKASDYTFTNYWMHWVKQRPGRGLEWIGRIDPSSGGAKYNEKFKSKATLTVDKPSSTAYMEFSSLTSEDSAVYYCVRSRYDYDGWFAYWGLGTLVTVSA
VL: DIVMTQAAPSVPVTPGESVSISCRSSKSLLHSNGNTYLYWFLQRPGQSPQLLIYRMSNLASGVPDRFSGSGSGTAFTLRISRVEAEDVGVYYCMQHLEYPFTFGGGTKLEIKR
notes: Its printed constant part differs from that of the other IgG1 entries; Entries as printed include a leader and part of the constant region
B6: anti-TSG-6 antibody of SEQ ID NO: 1 and SEQ ID NO: 2 (first entry of Table 1, clone name not printed) (antibody, IgG1, V domains shown)
VH: QVRLQQSGAELAKPGASVKLSCKASGYTFTSYWMHWVKQRPGQGLEWIGYIIPSSGYTKNKQNFKDKATLTADKSSSTAYMQLSNLTYEDSAVYSCARSDGSYPYYFDYWGQGTTLTVSS
VL: ENVLTQSPAIMSASPGEKVTMTCSASSSVSYMHWYQQKSSTSPKLWIYDTSKLASGVPGRFSGSGSGNSYSLTISSMEAEDVATYYCFQGSGYPLTFGSGTKLEIKR
B7: 3E1 (antibody, V domains shown)
VH: QVQLQQSGAELAKPGASVRLSCQASGYTFTSYWMHWVKQRPRQGLEWIGYIIPSSGYTKCHQKFKDKATLTADKSSSTAYMQLSSLTYEDSAVYYCARSTSGYPYYFDSWGQGTTLTVSS
VL: B6 VL with K18R, S26T, Y31F, G92W, S99A, I105L
notes: as for B1
B8: 5A5 (antibody, V domains shown)
VH: B7 VH with S31T, T58S, S77N, Y80S, S109Y
VL: B6 VL with S26T, G92W, S99A, I105L
notes: as for B1
B9: 5D9 (antibody, V domains shown)
VH: QVQLQQSGAELARPGASVKLSCKASDDTFINYGINWVKQRTGQGLEWIGETFPSNGNTFYNEKFKGKATLTADRSSSTTYMELRSLTSEDAAVYFCARHSNLPYFDHWGQGSTLTVSS
VL: DIVMTQSPSSLSVSAGEKVTMSCKSSQSLLNSGNQKNYLAWYQQKPGQPPKLLIYGASTRESGVPERFTGSGSGTDFTLTISSVQAEDLAVYYCQNDHSYPFTFGGGTNLEIKR
notes: as for B1
B10: 4F1 (antibody, V domains shown)
VH: EVKLVESGGGLVQPGGSLSLSCAASGFTFTDYYMSWVRQPPGKALEWLGFIRHKAKGYTAEYSASVKGRFTISRDNSQSILYLQMNALRAEDSATYYCARLYYYGSPHWYFDVWGTGTTVTVSS
VL: QIVLTQSPAIMSASPGEKVTMTCSASSSVSYMHWYQQKSGTSPKRWIYDTSKLASGVPARFSGSGSGTSYSLTISSMEAEDAATYYCQQWSSNPPTFGSGTELEIKR
notes: as for B1
B11: 3E4 (antibody, V domains shown)
VH: QVQLQQPGAELVKPGASVKLSCKASGYTFTSQWMHWVKQRPGQGLEWIGMIHPNSGSTNNNEKFKSKATLTVDKSSSTAYMQLSSLTSEDSAVYYCTRWAMDYWGQGTSVTASS
VL: DVVMTQTPLSLPVSLGDLASISCRSSQSLVHSNGNTYLHWYLQKPGQSPKLLIFKVSNRFSGVPDRFSGSGSGTDFTLKISRVEAEDLGVYFCSQSTHVPWTFGGGTKLEIKR
notes: as for B1

These binders were tested against T1, Recombinant mouse TSG-6 (R&D Biosystems, catalog #2326-TS) (mouse, UniProt O08859 18-275) (assay: hybridoma raised against mouse TSG-6; clone selection by ELISA).
T1 construct: Bought protein, used KLH-coupled as the immunogen; also called mTSG-6
T1 sequence (O08859 18-275 limits assumed): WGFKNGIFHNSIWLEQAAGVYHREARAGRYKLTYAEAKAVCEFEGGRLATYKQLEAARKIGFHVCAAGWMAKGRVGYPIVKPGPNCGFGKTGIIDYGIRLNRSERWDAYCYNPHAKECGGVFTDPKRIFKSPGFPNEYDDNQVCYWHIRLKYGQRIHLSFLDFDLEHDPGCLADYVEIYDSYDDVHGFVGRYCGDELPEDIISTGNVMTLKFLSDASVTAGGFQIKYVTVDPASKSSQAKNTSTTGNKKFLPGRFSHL
Procedure: (§1) Mouse antibodies directed against mouse TSG-6 protein (mTSG-6) were generated using conventional mouse monoclonal antibody techniques. Briefly, mice (strain SJL/J) were inoculated with KLH-coupled recombinant mouse TSG-6 (R&D Biosystems, catalog #2326-TS). After boosting, antibody titers were determined by ELISA, using a non-relevant His6-tagged protein as a control. Mice selected for fusion were sacrificed and hybridoma fusion was performed using the P3X63Ag8.653 murine myeloma cell line as a fusion partner. Clones were isolated by limiting dilution and selected by ELISA of hybridoma supernatants. Recombinant human TSG-6 (R&D Biosystems, catalog #2104-TS) was used as a substrate for ELISA assays thus facilitating the selection of human- and mouse-cross reactive clones (the two proteins are 92% identical at the amino acid level). Hybridoma mRNA was transcribed to cDNA and amplified by 5′-rapid amplification of cDNA ends (RACE). PCR products were cloned into an appropriate sequencing vector and sequenced by the dideoxy Sanger method. Multiple copies were sequenced to verify the clonality of each clone. Translated protein sequences were entered into the NCBI IgBLAST search tool (Ye, J., et al., 2013, Nucleic Acids Res. 41, W34-40) to identify CDRs.

Row | binding result | Binder
1 | binds | B1
2 | binds | B2
3 | binds | B3
4 | binds | B4
5 | binds | B5
6 | binds | B6
7 | binds | B7
8 | binds | B8
9 | binds | B9
10 | binds | B10
11 | binds | B11

These binders were tested against T2, Recombinant human TSG-6 (R&D Biosystems, catalog #2104-TS) (human, UniProt P98066 18-277) (assay: ELISA of hybridoma supernatants on recombinant human TSG-6).
T2 construct: Bought protein; also called hTSG-6; Tumor necrosis factor-inducible gene 6 protein
T2 sequence (P98066 18-277 limits assumed): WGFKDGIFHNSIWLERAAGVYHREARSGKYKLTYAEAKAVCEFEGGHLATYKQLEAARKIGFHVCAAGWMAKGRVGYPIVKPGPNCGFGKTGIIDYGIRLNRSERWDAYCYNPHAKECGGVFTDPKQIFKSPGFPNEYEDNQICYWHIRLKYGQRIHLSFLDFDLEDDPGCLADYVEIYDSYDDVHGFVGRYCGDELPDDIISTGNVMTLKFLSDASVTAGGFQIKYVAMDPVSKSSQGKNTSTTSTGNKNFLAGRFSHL
Procedure: as §1

Row | binding result | Binder
12 | binds | B1
13 | binds | B2
14 | binds | B3
15 | binds | B4
16 | binds | B5
17 | binds | B6
18 | binds | B7
19 | binds | B8
20 | binds | B9
21 | binds | B10
22 | binds | B11
